{"source": "paper PMC9727770", "about": "(2023)", "binders": {"B1": {"name": "Regn-10987 (antibody, V domains shown)", "VH": "QVQLVESGGGVVQPGRSLRLSCAASGFTFSNYAMYWVRQAPGKGLEWVAVISYDGSNKYYADSVKGRFTISRDNSKNTLYLQMNSLRTEDTAVYYCASGSDYGDYLLVYWGQGTLVTVSS", "VL": "QSALTQPASVSGSPGQSITISCTGTSSDVGGYNYVSWYQQHPGKAPKLMIYDVSKRPSGVSNRFSGSKSGNTASLTISGLQSEDEADYYCNSLTSISTWVFGGGTKLTVL"}, "B2": {"name": "Regn-10933 (antibody, V domains shown)", "VH": "QVQLVESGGGLVKPGGSLRLSCAASGFTFSDYYMSWIRQAPGKGLEWVSYITYSGSTIYYADSVKGRFTISRDNAKSSLYLQMNSLRAEDTAVYYCARDRGTTMVPFDYWGQGTLVTVSS", "VL": "DIQMTQSPSSLSASVGDRVTITCQASQDITNYLNWYQQKPGKAPKLLIYAASNLETGVPSRFSGSGSGTDFTFTISGLQPEDIATYYCQQYDNLPLTFGGGTKVEIK"}, "B3": {"name": "Eli Lilly Ly-CoV016 (antibody, V domains shown)", "VH": "EVQLVESGGGLVQPGGSLRLSCAASGFTVSSNYMSWVRQAPGKGLEWVSVIYSGGSTFYADSVKGRFTISRDNSMNTLFLQMNSLRAEDTAVYYCARVLPMYGDYLDYWGQGTLVTVSS", "VL": "not shown"}}, "data": [{"target": "RBD of the SARS-CoV-2 L strain spike protein, soluble (SARS-CoV-2 (L strain), UniProt P0DTC2 319-541)", "assay": "BLI", "units": {"Kd": "nM"}, "values": [{"binder": "B1", "Kd": 74.2}, {"binder": "B2", "Kd": 14.4}, {"binder": "B3", "Kd": 203}]}]}
